Data: US20120184016A1, “NOVEL PROTEIN AND GENE THAT CODES THEREFOR” (priority 2009, published 2012)
“And” between values parts separate entries of the source, which are not always exact repeats. Equal entries are not always repeated.

Key:
Assay type in all cases: biochemical
[1] = Enzyme activity of the sample after each purification step
Excerpt: The sialyltransferase activity may be measured by a known method, for example, the process described in J. Biochem., 120, 104-110 (1996) (which is hereby incorporated by reference in its entirety). For example, the enzyme activity can be evaluated by performing an enzyme reaction using CMP-NeuAc (N-acetylneuraminic acid) as a sugar donor substrate and lactose as a sugar acceptor substrate and evaluating the amount of the reaction product, i.e., sialyllactose. Note that one enzyme unit (1 U) of sialyltransferase is defined as the amount of the enzyme required to transfer one micromole of sialic acid per minute.
Sialyltransferase activity was measured by a method described in J. Biochem., 120, 104-110 (1996) (which is hereby incorporated by reference in its entirety). Specifically, the enzyme reaction was performed using a reaction solution (30 μL) containing CMP-NeuAc (70 nmol, containing about 20000 cpm CMP-NeuAc in which NeuAc was labeled with ^14C; NeuAc represents N-acetylneuraminic acid) as a sugar donor substrate, lactose (1.25 μmol) as a sugar acceptor substrate, NaCl added to give a concentration of 0.5 M, and the enzyme prepared as described above. The enzyme reaction was carried out at 25° C. for about 10 to 180 minutes. After completion of the reaction, 1.97 mL of 5 mM phosphate buffer (pH 6.8) was added to the reaction solution, which was then applied to a Dowex 1×8 (PO4^3− form, 0.2×2 cm, manufactured by Bio-Rad Laboratories, Inc.) column. The radioactivity contained in the reaction product contained in the eluate (0 to 2 mL) from this column, that is, sialyllactose, was measured to calculate the enzyme activity. One enzyme unit (1 U) is defined as the amount of enzyme required to transfer one micromole of sialic acid per minute.
The enzyme activity was measured by the method described in J. Biochem., 120, 104-110 (1996), as in Example 1. The amount of the protein was measured using a Coomassie Protein Assay Reagent (manufactured by Pierce) in accordance with the instruction manual attached thereto. One enzyme unit (1 U) was defined as the amount of enzyme required to transfer one micromole of sialic acid per minute.

[2] = Optimum pH and optimum temperature for neuraminidase activity; details: purified enzyme
Method: The optimum pH and the optimum temperature for neuraminidase activity of the recombinant β-galactoside-α2,6-sialyltransferase SHIZ119-N1C0 derived from the JT-SHIZ-119 strain were investigated using the purified enzyme prepared in Example 3.
The enzyme activity at various pH levels was measured at 35° C. with the buffer used in Example 4.
The neuraminidase activity was measured at every increment of 5° C. starting from 5° C. up to 50° C. using cacodylate buffer (pH 6.0).

[3] = Sialyltransferase activity of crude enzyme solution (14C CMP-NeuAc transfer to lactose); details: crude enzyme extraction solution from transformed E. coli; with acceptor (120 mM lactose); 30° C. for 30 minutes; duplicate
[4] = Confirmation of β-galactoside-α2,6-sialyltransferase activity with pyridylaminated lactose, HPLC; details: enzyme expressed by E. coli transformed with SHIZ119-N1C0/pTrc99A
Method: The linkage mode of sialic acid transferred to the sugar acceptor substrate can be determined by, but is not limited to, any procedure known to those skilled in the art, for example, a method using a pyridylaminated sugar chain or nuclear magnetic resonance spectroscopy (NMR) of the reaction product. The method using a pyridylaminated sugar chain involves an enzyme reaction using the pyridylaminated sugar chain as the sugar acceptor substrate. More specifically, an enzyme reaction is performed using pyridylaminated lactose (Galβ1-4Glc-PA, manufactured by Takara Bio Inc.) as a sugar acceptor substrate and CMP-NeuAc as a sugar donor substrate, and the reaction product is analyzed by high performance liquid chromatography (HPLC). From the retention time of the reaction product, the position at which sialic acid was transferred is determined.
Then, to determine the linkage mode of sialic acid, a reaction using PA-lactose as a substrate was performed. The enzyme reaction was performed using the resulting crude enzyme solution and a pyridylaminated sugar chain as the sugar acceptor substrate. As the pyridylaminated sugar chain, pyridylaminated lactose (Galβ1-4Glc-PA, manufactured by Takara Bio Inc.) was used. […] The analysis was performed under the following conditions: flow rate: 1 mL/min, column temperature: 40° C., detection: fluorescence (Ex: 320 nm, Em: 400 nm). […]

[5] = Confirmation of neuraminidase activity (long reaction, HPLC); details: purified enzyme; PA-6′-sialyllactose signal decreased, PA-lactose signal increased with reaction time; FIG. 3-1
Method: In the process described in Example 2(6), the reaction using the purified enzyme solution of the JT-SHIZ-119-derived recombinant β-galactoside-α2,6-sialyltransferase prepared in Example 3 was performed for a long time. The signal of the reaction product (PA-6′-sialyllactose, retention time: 4.02 min) decreased and the signal of the PA-lactose (retention time: 3.73 min), which was the original sugar acceptor substrate, increased in accordance with an increase in reaction time (FIG. 3-1).

B1: SHIZ119-N1C0 (protein)
chain: MCNDNQNTVDVVVSTVNDNVIENNTYQVKPIDTPTTFDSYSWIQTCGTPILKDDEKYSLSFDFVAPELDQDEKFCFEFTGDVDGKRYVTQTNLTVVAPTLEVYVDHASLPSLQQLMKIIQQKNEYSQNERFISWGRIGLTEDNAEKLNAHIYPLAGNNTSQELVDAVIDYADSKNRLNLELNTNTAHSFPNLAPILRIISSKSNILISNINLYDDGSAEYVNLYNWKDTEDKSVKLSDSFLVLKDYFNGISSEKPSGIYGRYNWHQLYNTSYYFLRKDYLTVEPQLHDLREYLGGSLKQMSWDGFSQLSKGDKELFLNIVGFDQEKLQQEYQQSELPNFVFTGTTTWAGGETKEYYAQQQVNVVNNAINETSPYYLGREHDLFFKGHPRGGIINDIILGSFNNMIDIPAKVSFEVLMMTGMLPDTVGGIASSLYFSIPAEKVSFIVFTSSDTITDREDALKSPLVQVMMTLGIVKEKDVLFWSDLPDCSSGVCIAQY
modifications: beta-galacoside-alpha-2,6-sialyltransferase from phorobacterium leiognathi (without signal peptide)
Specific activity ([1]; sample: Crude enzyme solution): 5.5 U/mg
Specific activity ([1]; sample: HAP): 82.9 U/mg
Specific activity ([1]; sample: Mono-Q): 36.2 U/mg
Specific activity ([1]; sample: Q-sepharose): 35.6 U/mg
pH at which neuraminidase activity is the highest (optimum pH) ([2]; 35° C., FIG. 4-1): 6.0
temperature at which neuraminidase activity is the highest (optimum temperature) ([2]; cacodylate buffer (pH 6.0), 5° C. up to 50° C., FIG. 4-2): 35 °C
Transferred NeuAc [3]: 7786 cpm and 8446 cpm
reaction product with PA-lactose and CMP-NeuAc (linkage mode of transferred sialic acid) [4]: PA-6′-sialyllactose (Neu5Acα2-6Galβ1-4Glc-PA) was detected
neuraminidase activity (in words) [5]: also has neuraminidase activity
